± gives the uncertainty stated by the source.
B1: Formin-binding protein 4, residues 593 to 636; numbered along this chain, Q8N3X1 (parent)
chain: EINATPKGWSCHWDRDHRRYFYVNEQSGESQWEFPDGEEEEEES

Variants of: B1
Test: abundance fitness (aPCA) (normalised: wild type 0, dead -1); higher = more abundant; growth selection in yeast, the domain comes from the species named
Settings: Homo sapiens

Row | Variant | abundance fitness
1 | EINATPKGWSCHWDRDHRRYFYVNEQSGESQWEFPDGEEAEEES [E40A] | 0.038 ± 0.067
2 | EINATPKGWSCHWDRDHRRYFYVNEQSGESQWEFPDGEEREEES [E40R] | -0.035 ± 0.058
3 | EINATPKGWSCHWDRDHRRYKYVNEQSGESQWEFPDGEEEEEES [F21K] | -0.067 ± 0.11
4 | EINATPKGWSCHWDRDHRRYWYVNEQSGESQWEFPDGEEEEEES [F21W] | -0.275 ± 0.086
5 | EINATPKGWSCHWDRDHRRYEYVNEQSGESQWEFPDGEEEEEES [F21E] | -0.145 ± 0.089
6 | EINATPKGWSCHWDRDHRRYFYVNEQSGESQWEFPDGEQEEEES [E39Q] | 0.074 ± 0.078
7 | EISATPKGWSCHWDRDHRRYFYVNEQSGESQWEFPDGEEEEEES [N3S] | -0.072 ± 0.12
8 | EINATPKGWSCHWDRDHRRYFYVDEQSGESQWEFPDGEEEEEES [N24D] | -0.362 ± 0.085
9 | EINATPKGWSCHWDRDHRRYFYVGEQSGESQWEFPDGEEEEEES [N24G] | -0.611 ± 0.059
10 | EINATPKGWWCHWDRDHRRYFYVNEQSGESQWEFPDGEEEEEES [S10W] | -1.06 ± 0.12
11 | EINATPKGWECHWDRDHRRYFYVNEQSGESQWEFPDGEEEEEES [S10E] | -0.381 ± 0.11
12 | EINATPKGWSCHWDRDHRRYFYVNEQTGESQWEFPDGEEEEEES [S27T] | 0.022 ± 0.072
13 | EINATPKGWSCQWDRDHRRYFYVNEQSGESQWEFPDGEEEEEES [H12Q] | -0.432 ± 0.2
14 | EINATPKGWSCCWDRDHRRYFYVNEQSGESQWEFPDGEEEEEES [H12C] | -0.302 ± 0.14
15 | EINALPKGWSCHWDRDHRRYFYVNEQSGESQWEFPDGEEEEEES [T5L] | 0.213 ± 0.084
16 | EINARPKGWSCHWDRDHRRYFYVNEQSGESQWEFPDGEEEEEES [T5R] | -0.345 ± 0.13
17 | EINAAPKGWSCHWDRDHRRYFYVNEQSGESQWEFPDGEEEEEES [T5A] | -0.387 ± 0.26
18 | EINATPKGWSCHWDRDHRRYFYVNEQSGESSWEFPDGEEEEEES [Q31S] | -0.293 ± 0.087
19 | EINATPKGWSCHWDRDHRRYFYVNEQSGESIWEFPDGEEEEEES [Q31I] | -0.472 ± 0.1
20 | EINATPKGWSCHWDRDHRRYFYVNEQSGESRWEFPDGEEEEEES [Q31R] | -0.075 ± 0.059

Row | Variant | abundance fitness
21 | EINATPKGWSCHWDRDHRRYFYVNEQSGESQWEFPDGEEEEEEM [S44M] | -0.536 ± 0.17
22 | EINATPKGWSCHWDRDHRRYFYPNEQSGESQWEFPDGEEEEEES [V23P] | -0.736 ± 0.11
23 | EINATPKGWSCHWDRDHRRYFYVNEQSGESQWEFPDGEEETEES [E41T] | -0.011 ± 0.065
24 | EINATPKGWSCHWDRDHRRYFYVNEQSGESQWIFPDGEEEEEES [E33I] | -0.284 ± 0.28
25 | EINATPKGWSCHWDRDHRRYFYVNEQSGESQWLFPDGEEEEEES [E33L] | -0.401 ± 0.072
26 | EINATPKGWSCHWDRDHRRYFYVNEQSGESQWEFPDGEEEEGES [E42G] | 0.122 ± 0.061
27 | EINATPKGWSCHWSRDHRRYFYVNEQSGESQWEFPDGEEEEEES [D14S] | -0.141 ± 0.077
28 | EINATPKGWSCHWPRDHRRYFYVNEQSGESQWEFPDGEEEEEES [D14P] | -1.12 ± 0.29
29 | EINATPKGWSCHWFRDHRRYFYVNEQSGESQWEFPDGEEEEEES [D14F] | -0.75 ± 0.47
30 | EINATPKGWSCHWDRDHRRYFYVNEQSGESQWEFPAGEEEEEES [D36A] | -0.04 ± 0.067
31 | EINATPKGWSCHWDRDHRRYFYVNEQSGESQWEFPTGEEEEEES [D36T] | -0.137 ± 0.081
32 | EINATPKGWSCHWDRDHRRYFYVNEQSGESQWEFPVGEEEEEES [D36V] | -0.044 ± 0.064
33 | EINATPKGWSCHWDRDHRRYFYVNEQSGESQWEFPIGEEEEEES [D36I] | -0.07 ± 0.13
34 | EINATPKGWSCHWDRDHRRYFQVNEQSGESQWEFPDGEEEEEES [Y22Q] | -0.439 ± 0.099
35 | EINATPKGWSCHWDRDHREYFYVNEQSGESQWEFPDGEEEEEES [R19E] | -0.406 ± 0.11
36 | EINATPKGWSCHWDADHRRYFYVNEQSGESQWEFPDGEEEEEES [R15A] | -0.059 ± 0.073
37 | EINATPKGWSCHWDRDHRRYFYVNEPSGESQWEFPDGEEEEEES [Q26P] | -1.06 ± 0.24
38 | EINATPKGWSCHWDRDHRRYFYVNEMSGESQWEFPDGEEEEEES [Q26M] | -0.242 ± 0.18
39 | EINATPKIWSCHWDRDHRRYFYVNEQSGESQWEFPDGEEEEEES [G8I] | -0.496 ± 0.14
40 | EINATPKGWSCHWDRDHRRYFYVNEQSGESQWEFPDGIEEEEES [E38I] | -0.021 ± 0.16

Row | Variant | abundance fitness
41 | EINATPKGWSCHWDRDHRRYFYVNEQSGESQWEFPDGAEEEEES [E38A] | 0.018 ± 0.066
42 | EINATPKGWSCHWDRDHRRYFYVNEQSGESQWEFPDGFEEEEES [E38F] | -0.217 ± 0.12
43 | EINATPKGWSCHWDRDHRRRFYVNEQSGESQWEFPDGEEEEEES [Y20R] | -0.229 ± 0.068
44 | EINATPKGWSCHWDRDHVRYFYVNEQSGESQWEFPDGEEEEEES [R18V] | -0.421 ± 0.1
45 | EINATPKGWSCHIDRDHRRYFYVNEQSGESQWEFPDGEEEEEES [W13I] | -0.986 ± 0.31
46 | EINATPKGWSCHKDRDHRRYFYVNEQSGESQWEFPDGEEEEEES [W13K] | -0.545 ± 0.16
47 | EINATSKGWSCHWDRDHRRYFYVNEQSGESQWEFPDGEEEEEES [P6S] | -0.412 ± 0.39
48 | EINATPKGWSCHWDRDHRRYFYVNEQSEESQWEFPDGEEEEEES [G28E] | -0.702 ± 0.1
49 | EINATPKGWSCHWDRDHRRYFYVNEQSDESQWEFPDGEEEEEES [G28D] | -0.682 ± 0.11
50 | EINATPKGWSCHWDRCHRRYFYVNEQSGESQWEFPDGEEEEEES [D16C] | -0.225 ± 0.089
51 | EINATPKGWSCHWDRGHRRYFYVNEQSGESQWEFPDGEEEEEES [D16G] | -0.239 ± 0.061
52 | EINATPDGWSCHWDRDHRRYFYVNEQSGESQWEFPDGEEEEEES [K7D] | -0.123 ± 0.4
53 | EINATPKGWSCHWDRDHRRYFYVNKQSGESQWEFPDGEEEEEES [E25K] | 0.477 ± 0.27
54 | EINATPKGCSCHWDRDHRRYFYVNEQSGESQWEFPDGEEEEEES [W9C] | -0.56 ± 0.094
55 | EINATPKGWSCHWDRDHRRYFYVNEQSGVSQWEFPDGEEEEEES [E29V] | -0.126 ± 0.079
56 | VINATPKGWSCHWDRDHRRYFYVNEQSGESQWEFPDGEEEEEES [E1V] | -0.499 ± 0.16
57 | GINATPKGWSCHWDRDHRRYFYVNEQSGESQWEFPDGEEEEEES [E1G] | -0.433 ± 0.11
58 | NINATPKGWSCHWDRDHRRYFYVNEQSGESQWEFPDGEEEEEES [E1N] | -0.304 ± 0.34
